Measured values: the supplement of paper PMC10126150
± gives the standard deviation of the averaged measurements.

tested on: ATP; assay: switch fluorescence ratio, 500 uM ATP over buffer (Cy3 cluster intensity, sum of 5 cycles each) (fold (ratio)); higher = stronger signal-on switching upon ATP binding; sequences stand for … in TCGTCGGCAGCGTCAGATGTGTATAAGAGACAGTTTTTTTTTTTTTTTTTTTTTTTTT…TC; settings: aptamer strand: ATP DNA aptamer (quencher-CACCTGGGGGAGTATTGCGGAGGAAGG + anchor), 100 nM annealed; ATP concentration: 500 uM
In short: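 After annealing to 100 nM quencher-labelled ATP aptamer, Cy3-labelled switching-strand clusters on a modified Illumina MiSeq flow-cell were imaged in selection buffer. A second image followed after 15 min with 500 uM ATP at 22 °C, and five such buffer/ATP cycles were done, each separated by NaOH stripping and re-annealing. The fluorescence ratio, averaged per switch-domain sequence, is summed target-cycle over summed buffer-cycle Cy3 intensity per cluster, with clusters outside 100-1000 RFU excluded.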
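Note: ATP exposure 15 min at 22 °C before imaging.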

Sequence | switch fluorescence ratio
GAGGATTATT | 0.9694 ± 0.0059
GAGGATTGAC | 1 ± 0.038
GAGGCAAAG | 2.87 ± 2.4
GAGGCAAAGT | 1.094 ± 0.0059
GAGGCAAGGT | 1.65 ± 0.092
GAGGCACGG | 1.0469 ± 0.00025
GAGGCAGAGT | 1.04 ± 0.023
GAGGCATATA | 1.9 ± 0.29
GAGGCCGCTA | 1.84 ± 0.043
GAGGCGCATC | 1 ± 0.026
GAGGCGCTTA | 0.961 ± 0.011
GAGGCGGCTG | 0.994 ± 0.038
GAGGCGGGTG | 1.01 ± 0.013
GAGGCTGGTA | 0.98 ± 0.028
GAGGCTGTTT | 1.01 ± 0.035
GAGGGAATGG | 1.07 ± 0.061
GAGGGAATTA | 1.06 ± 0.11
GAGGGACTGG | 0.988 ± 0.084
GAGGGACTTG | 0.98 ± 0.012
GAGGGCACGC | 0.968 ± 0.06
GAGGGCCGCG | 0.997 ± 0.051
GAGGGCCGGG | 0.995 ± 0.068
GAGGGCGGCA | 1.02 ± 0.036
GAGGGCGTAA | 1.06 ± 0.035
GAGGGCTGAG | 0.985 ± 0.02

Sequence | switch fluorescence ratio
GAGGGGAAGT | 0.9982 ± 0.004
GAGGGGAGGT | 0.974 ± 0.025
GAGGGGATTG | 0.986 ± 0.047
GAGGGGCCTA | 0.968 ± 0.021
GAGGGGCGAT | 0.998 ± 0.013
GAGGGGGGAG | 0.986 ± 0.027
GAGGGGGTAG | 0.997 ± 0.033
GAGGGGGTCA | 1.02 ± 0.029
GAGGGGGTTT | 0.99 ± 0.018
GAGGGGTAAG | 1 ± 0.015
GAGGGGTACT | 1.025 ± 0.0042
GAGGGGTGTG | 0.993 ± 0.029
GAGGGGTTAG | 0.978 ± 0.014
GAGGGTAATC | 1.004 ± 0.01
GAGGGTAGAG | 1.01 ± 0.042
GAGGGTCCTA | 0.9994 ± 0.0054
GAGGGTGCAG | 1.004 ± 0.0043
GAGGGTGTAA | 1.001 ± 0.01
GAGGGTTTTG | 0.9768 ± 0.0092
GAGGTAAGGT | 1 ± 0.015
GAGGTAGGCC | 1.048 ± 0.0066
GAGGTAGTCA | 1.0112 ± 0.00047
GAGGTATGTG | 0.997 ± 0.023
GAGGTATTTG | 1.02 ± 0.037
GAGGTCCAGC | 1.14 ± 0.074

Sequence | switch fluorescence ratio
GAGGTGAGAC | 1.06 ± 0.13
GAGGTGGGGC | 1.05 ± 0.028
GAGGTGTGAG | 1.03 ± 0.018
GAGGTGTGTT | 0.996 ± 0.02
GAGGTTGATG | 1.01 ± 0.02
GAGGTTGCCG | 0.951 ± 0.018
GAGGTTGTTA | 0.993 ± 0.032
GAGGTTTAAG | 0.957 ± 0.052
GAGGTTTAAT | 0.981 ± 0.039
GAGGTTTTAT | 0.987 ± 0.054
GAGGTTTTGG | 1.03 ± 0.057
GAGTAAGAGG | 0.989 ± 0.059
GAGTAAGGGT | 0.99 ± 0.024
GAGTAAGTTT | 1.012 ± 0.0081
GAGTACACGT | 0.9813 ± 0.0061
GAGTACGGGA | 1.09 ± 0.059
GAGTAGGAAG | 0.961 ± 0.05
GAGTAGGCGC | 0.955 ± 0.032
GAGTAGTATT | 1 ± 0.02
GAGTATTTAG | 0.9801 ± 0.0093
GAGTATTTTG | 0.953 ± 0.026
GAGTCAACGG | 1.027 ± 0.0071
GAGTCACGGA | 1.01 ± 0.046
GAGTCGGGTA | 1.028 ± 0.0097
GAGTCTAAGT | 0.996 ± 0.026

Sequence | switch fluorescence ratio
GAGTCTGGGA | 1.032 ± 0.0051
GAGTCTGTGC | 1.02 ± 0.043
GAGTCTTATA | 1.01 ± 0.031
GAGTCTTTTA | 0.959 ± 0.013
GAGTGAAGGA | 1.03 ± 0.065
GAGTGACCGA | 1.01 ± 0.02
GAGTGACTTG | 1.017 ± 0.0089
GAGTGAGTCG | 0.981 ± 0.022
GAGTGCTGGG | 1.01 ± 0.011
GAGTGCTGTT | 1.024 ± 0.01
GAGTGGAAGC | 0.964 ± 0.051
GAGTGGAATA | 1.002 ± 0.0083
GAGTGGGATG | 0.9633 ± 0.0035
GAGTGGGGGG | 0.976 ± 0.043
GAGTGGGTTA | 1.03 ± 0.012
GAGTGGGTTT | 0.999 ± 0.03
GAGTGTACGT | 1.01 ± 0.052
GAGTTAAGGG | 1.007 ± 0.0018
GAGTTAATGT | 1.01 ± 0.043
GAGTTAATTG | 1.01 ± 0.043
GAGTTATATT | 0.985 ± 0.025
GAGTTATGGT | 1.02 ± 0.044
GAGTTATTTA | 0.982 ± 0.027
GAGTTCAGGA | 1 ± 0.021
GAGTTCCCGA | 0.977 ± 0.048

Sequence | switch fluorescence ratio
GAGTTCCGGG | 1.01 ± 0.024
GAGTTCGCGG | 1.034 ± 0.01
GAGTTCGGGG | 0.987 ± 0.014
GAGTTGAGAT | 0.9871 ± 0.007
GAGTTGCAGG | 1.01 ± 0.032
GAGTTGGGAA | 1.04 ± 0.077
GAGTTGGGGT | 0.986 ± 0.018
GAGTTGTCTT | 0.9538 ± 0.0062
GAGTTTATAT | 1.01 ± 0.017
GAGTTTTGAA | 0.997 ± 0.018
GATAAACAAT | 1.19 ± 0.28
GATAAATCGG | 0.981 ± 0.024
GATAACCTTT | 1.073 ± 0.0078
GATAAGAGTG | 1.02 ± 0.052
GATAAGGGTG | 1.07 ± 0.0053
GATAAGTCGT | 0.991 ± 0.032
GATAATAGGG | 0.99 ± 0.045
GATACAGTGC | 1.059 ± 0.002
GATACGTGTT | 0.998 ± 0.053
GATACTCGTG | 0.97 ± 0.032
GATACTGCGC | 1.16 ± 0.087
GATACTGGGG | 1.01 ± 0.028
GATAGAAATT | 1.01 ± 0.031
GATAGAATGA | 1.014 ± 0.0096
GATAGAGAGG | 1 ± 0.044

Sequence | switch fluorescence ratio
GATAGCCGAT | 1.031 ± 0.0015
GATAGGAAGG | 0.964 ± 0.052
GATAGGCAGG | 0.998 ± 0.019
GATAGGCGGG | 0.9795 ± 0.0094
GATAGGGGAT | 0.986 ± 0.031
GATAGTAAGG | 0.9795 ± 0.0075
GATAGTATGC | 0.961 ± 0.059
GATAGTATGT | 0.981 ± 0.023
GATAGTGAAA | 1.02 ± 0.035
GATATACAGC | 1.02 ± 0.017
GATATAGGGG | 1 ± 0.034
GATATCAGGA | 0.989 ± 0.027
GATATCATCT | 0.99 ± 0.042
GATATCCGAG | 1.05 ± 0.011
GATATGCGTT | 0.985 ± 0.031
GATATGGGCA | 1.04 ± 0.037
GATATGTGGG | 0.986 ± 0.031
GATATTGAAG | 0.974 ± 0.031
GATATTGGGG | 0.981 ± 0.033
GATATTGTCA | 1.04 ± 0.069
GATATTGTTT | 0.988 ± 0.019
GATATTTGA | 0.99448 ± 0.00073
GATATTTTCG | 1.01 ± 0.035
GATATTTTGG | 0.982 ± 0.025
GATCAAGGGG | 0.9939 ± 0.0078

Sequence | switch fluorescence ratio
GATCCAGGAG | 1.11 ± 0.047
GATCCGAGGG | 0.974 ± 0.018
GATCCGGCTT | 1.04 ± 0.035
GATCCGGGC | 1.05 ± 0.087
GATCCTAACG | 1.04 ± 0.048
GATCCTTTAT | 0.979 ± 0.02
GATCGATTTG | 0.998 ± 0.023
GATCGCTTGG | 1.04 ± 0.036
GATCGGAATA | 1.87 ± 0.091
GATCGGATTA | 0.999 ± 0.024
GATCGGCTTG | 0.984 ± 0.013
GATCGGGGCA | 0.97679 ± 0.00094
GATCGGGGGC | 1.06 ± 0.14
GATCGGTACG | 1 ± 0.011
GATCGTACAG | 1.04 ± 0.018
GATCTACAGC | 1.02 ± 0.024
GATCTACGGC | 1.07 ± 0.024
GATCTGTGGA | 0.95 ± 0.052
GATCTTAGGT | 0.996 ± 0.041
GATGAAATGG | 1.02 ± 0.013
GATGAACGTC | 1.11 ± 0.19
GATGAAGCGA | 1.19 ± 0.02
GATGAAGGGA | 0.979 ± 0.013
GATGAATGGG | 0.996 ± 0.014
GATGACGAAT | 1.023 ± 0.0047

Sequence | switch fluorescence ratio
GATGACGTCC | 1.04 ± 0.069
GATGACTTGT | 0.972 ± 0.011
GATGAGAGGT | 0.999 ± 0.015
GATGAGGAAG | 1.01 ± 0.06
GATGAGGGTA | 0.976 ± 0.034
GATGAGGGTG | 1.06 ± 0.015
GATGAGTTG | 1.01 ± 0.012
GATGATAGCG | 0.999 ± 0.025
GATGATGGGC | 0.996 ± 0.035
GATGCACCGA | 1.06 ± 0.036
GATGCATGGC | 1.12 ± 0.035
GATGCTACTG | 1.04 ± 0.016
GATGCTGTGC | 1.0328 ± 0.00033
GATGCTTCTT | 0.985 ± 0.019
GATGCTTGTG | 0.978 ± 0.011
GATGGAAAGG | 0.998 ± 0.029
GATGGAAGGG | 0.974 ± 0.023
GATGGAGGTG | 0.997 ± 0.011
GATGGATAGG | 0.9804 ± 0.0043
GATGGATGGG | 1.019 ± 0.0069
GATGGATTAG | 0.982 ± 0.015
GATGGCGGAG | 1.03 ± 0.042
GATGGCGTGG | 0.964 ± 0.038
GATGGCTACG | 1.01 ± 0.024
GATGGGACAA | 1.008 ± 0.0027
